{"source": "the DeepSol protein solubility set", "data": [{"test": "soluble on expression in E. coli; label from the status in PepcDB or PDB records", "values": [{"sequence": "MEALRSAPRAAHFLPMELQSSGERSPPREGAPVGTGATAGETPSAAPSGTPLWIPPRLATLDEVTLCHNIHRYRCFIEEGTALLPPLKTDVYCNGKTSSIATRLSVGAVVDAARRALSGSPAFAFCLVRPPGHHASADTPSGFCLVNNVAIAAMQLLQDWHVKYDCGVGGSRSVPSEERDIPERPRIAIVDIDVHHGEGTQSFVEVEPQLLYLSLHRYDRGSFYPCDPAGATSYVGQHRNICNVAVDTAATDPARCEEVISDMLFARVVDDVFLPRLEQFHPNIILLSLGFDAAHGDPLGRMAVEGGFAYVVRALKRFCLQSQGTIGLVAVLEGGYSPEGVSRGVVSVAHALCYPFDDVAVVNYARLRTPKTWMELRSRLSRRMEVRTDETGGATSLSSGLSSQGLGDATSTERAIAD", "soluble on expression in E. coli": "not soluble"}, {"sequence": "MKELKQAEQIRTWVQSILTDESSGHDWHHVSRVADLAAYIGEKEKADLFIVETAALVHDLIDVKLPDTVRLSVSEVYDQLVFFGVGKENADRVIHIITRMSFRDRGKLAKEPLSIEGKAVQDADRLDAIGAVGIARAFMFAGAKGHGLYGDEQSAYAHFFHKLLRLKDMMNTDTARELAEERHNFMLQFVRQLEKDIPGIDAETS", "soluble on expression in E. coli": "not soluble"}, {"sequence": "MFSDELEKISWEETTKAIYSKTDADVRRALSKEHCDVNDFMALISPAAAPYLETMARLSRKYTMERFGKTISMFVPLYITNSCTNSCVYCGFNHNNPMKRTILTEEEMVNEYKAIKKLAPFENLLLVTGENPAKAGVDYIERALLLAKPYFANLQIEVMPLKAEEYERLTHAGLNGVICFQETYNKANYNIYHPRGMKSKFEWRVNGFDRMGQAGVHKIGMGVLIGLEEWRTDITMMAYHLRYLQKHYWKTKYSVNFPRMRPSENGGFQPNVVMNDRELAQVTFAMRIFDHDVDISYSTRESAAFRNHMATLGVTTMSAESKTEPGGYFTYPQALEQFHVSDERKAVEVDAALRSLGRIPVYKDWDTALTLPQC", "soluble on expression in E. coli": "soluble"}, {"sequence": "MGSDKIHHHHHHMSDEWIKIFESDFYVREMIKVWDEGEKWANWIDEVVSKYKLEKKVLDIPCGIGRVSYFLANRGYKVTGIDISERMISMARSNIQNGKFIVGDMRKIKEIIGNEKYDLVINIYNSLGYYSEEDDLKILESLRDSTRKIVVINLDNRDYIIYNRPNEYYTYIPPYLVYSKVEFEQETSRLKIYRKYYLNDKEVGEMIYEQRLYSIHEILALLKKAGLQPIEVLSGYSWKKFSIMDPEMTIIATPA", "soluble on expression in E. coli": "not soluble"}, {"sequence": "MGSDKIHHHHHHACDGILEGIYDSPAASDSNELGFIRTDPSTHSGTIYIDATDYRRWTFIDFHTQKVDSVNVTDSEQKEPEEWDIAVHRYDVKTNAGAVLETGFTGFSALRNADAMPEGAYVEDVWTTAKIAIDMSGMMDGNIVYMESYYNEELSKWLNVDKSNMPPTYTLSNKVYMVKLKDGTYAAVRLTNYMNASGVKGFMTIDYIYPFEL", "soluble on expression in E. coli": "not soluble"}, {"sequence": "MSRGSSAGFDRHITIFSPEGRVYQVEYAFKAINSTNLTAVAVKGADAAVIAVQKRVPDSLIVADTVTSVYQISQSVGCCAIGMIPDAKFQIKRAQGEAASWKYKNGYDMPCELLAKKMADLNQYYTQNAEMRSLGCALLFISYDDEKGPEVYRVDPAGYYRGMKGVSVGVKQLPATSFLEKKIKKKSELTSTEAIELAIEALQTSLGIDVRSKDLEVVVVTKDNSKFTKLTSDQVEHHLNQIANRD", "soluble on expression in E. coli": "not soluble"}, {"sequence": "MYTPVSKSTKSNKNRSSLDKILDAKKPVNLLILGTDTGAEGRSVKNYHGLTDLMMFVTVNPSKKQTRVTTIARDSKVNLPDYPEVSPIKLNSAYSLGGVSETIKTLDKYYSVPIDGYVLVNWASTMKIITKMGGVDVISPLTFDNMGYSFKKGQMYHISGKKALAFVQLRHGDPRQDYGRQERERLVMMAAIKKSVSYKTILNSSFMQSLGDSMQTDLSLNDMIKLAMNYQGVTDNVKSDYAQGKSSSVNNLEHHHHHH", "soluble on expression in E. coli": "soluble"}, {"sequence": "MGSDKIHHHHHHVDQVNAYRNSAHLYDLDQRELVTADIPFYLEYAGSFGGGILELGCGTGRIAIPLAEAGHDITALDLSENMLAAFSAKLTNVAAGTKKKLALVQGNMADFSLRKTFDMIIAPFRAFQALTRAEDINGCLACMREHLNDGGIVIINVFRPFGTLDESWCYPETVQWERWDDATGSKVVKKHWGQRIDVENQIIYPGFAYEVMASNGVVERFADNLALKYYYYEQLTTLLQDAGFRIKEEYGWYDKSPIENGRELIFVCTR", "soluble on expression in E. coli": "not soluble"}, {"sequence": "MKLGYSLSKSNAKNFKFYINGSAMGYKNIIINGAKSWNASPYLNTVSKGRDANPHFIISSSTIDRGATVAVCETWAYKGSKLVAKNEITTFKAFRSLSVGDKTETIAHEFGHGLGLGHVKTKNAIMLDVGFTKKIKPQRDDLNGIKAIYKLEHHHHHH", "soluble on expression in E. coli": "not soluble"}, {"sequence": "MKKIDSAVAVEPAATVPKGRKNNPEKTREDILKAAVAEFVAHGLTGARVDAIAERTKTSKRMIYYYFGSKEQLYVEVLEKLYGAIRNTESELNLGELEPVEAIHRVVEFTFDHHDSNVDFVRIVCIENIHNGENVKQSDTIQAKSQNIIRALDGILRRGEASGLFRDGVHPVDLHLMISSFCFYRISNRHTFSEIFQIELWSEEVKQRHKAMICDAVLRYLKR", "soluble on expression in E. coli": "not soluble"}, {"sequence": "MGSDKIHHHHHHMDKSIKSNAEKFIMIYNEIDRYMRKVLDENERTGNADLVKKMAKRNKVFEEYKDELMLFARLRNSIVHNPYNAELDPIAEPHDKIIVKYGELRDKILNPPLALDTIAVKGKNIYVVTQNESVLDVMTVMKDNNYANVPVVDNLGMIVGVFSKNTVFSYMVENEGVQIRRDTKINDFKEFIPLHKHENEFFAFVSRKTLAVEIEDMFKKRIHGKKKLSLVFITETGRVKEKILGIVTPWDIAIN", "soluble on expression in E. coli": "not soluble"}, {"sequence": "WYKDRGVYHWLSSGQEGTDIPYLGSSVFCSELYEKQMELIRLQHQKLHETEAKLDARVTYMNQWVHQVKTPLSVINLIIQEEDEPVFEQIKKEVRQIEFGLETLLYSSRLDLFERDFKIEAVSLSELLQSVIQSYKRFFIQYRVYPKMNVCDDHQIYTDAKWLKFAIGQVVTNAVKYSAGKSDRLELNVFCDEDRTVLEVKDYGVGIPSQDIKRVFDPYYTGENGRRFQESTGIGLHLVKEITDKLNHTVDISSSPGEGTSVRFSFLTK", "soluble on expression in E. coli": "not soluble"}, {"sequence": "MAVRKLWKTVVQLFSKSKSEECNTEAGTMEVSFLKYGVRGLNADCSYVKSQCIKLSECECLYTFASDVCKEDFHNSEEMKVFVVQHSQEMVDGTDLFVHAEESV", "soluble on expression in E. coli": "not soluble"}, {"sequence": "MGSDKIHHHHHHMSNQYHNFNSQIESHILFYGHQKCKPDEYFDGTNLRKNDILYYVLDGKGTFNSSGHHVAKLAKGDLFLVPRSRTCYFEADHDNPWEYFWIGLSGAGTNEMIKASNLPNKNFLRQIQKTEFFETLKELYSTLNEDSSLLNNVKIASLTYQLFYHLIDEFPNHPSIRKTPKIDQYQIAIDYLNKNYTDPTCNIVELCNRLGVSRSFLYSLFRKNTKISPQKYLMQLRMEAAKKELLNTTHNLKEIARKVGYGDEFTFSKAFKRYSGVSPNVFRGK", "soluble on expression in E. coli": "not soluble"}, {"sequence": "MRTFDLTAALGDRANQPEISRLLVAQLMTSNNEDTRKLRRAQEREQTQELNELAHRLAGMASLIHAHAVERACHQLEIACGESSVRKLADAVDDLVTALGELQCELHDWMTMTAPQGTAKS", "soluble on expression in E. coli": "not soluble"}, {"sequence": "GMDVTIERVNDFDGYNWLPLLAKSSQEGFQLVERMLRNRREESFQEDGEAMFVALSTTNQVLACGGYMKQSGQARTGRIRHVYVLPEARSHGIGTALLEKIMSEAFLTYDRLVLYSEQADPFYQGLGFQLVSGEKITHTLDKTAFADSNR", "soluble on expression in E. coli": "soluble"}, {"sequence": "MIKVAIIGAENVGKSTLMNALLGGKFSEVSETPGTTKGIIKRAFGKIKLPKTMKNPFGGADELVLIDTAGLFDPEKEIRGKVLSEEKFKELIKEIVNADVIIHMIDATKGLHRGMEKLHYMLKFRYEKPIIVVINKIDLVSREELERLRELVKKRLEQEPILLSLVTYEGFNELLKALTYYAQYVE", "soluble on expression in E. coli": "soluble"}, {"sequence": "MAHHHHHHMSDVSIYALRGTSALYEVLGVSRNATQREIRQGYYRLAVLYHPDKNPEGSDIFKEVCFAHGILSDPEQRALYDSGTLRAELESRARACDPSMDPGVELSPEDLRVFVDRVRQTQEANRQVQSTFELRREEEMKRRAEFDAKNPSFKAEYEQARHLRQHGCRGSTSAAHARASATADLSKTVPPKVRTSAEVLAELQREEEERLYGNPGIGSVDSSSSKRAESDGLSTKHHMMSHYRATHREASGAESLSNSYSGGSTAATVRRRQLETTRLPFVRAHCETPQYSETISATVQAYANYDYLTFVEGGSMDHGELEGAIMADALGNYDRHH", "soluble on expression in E. coli": "not soluble"}, {"sequence": "MGSDKIHHHHHHMINAPKTCTCYNGCVGGPSRPAGHPRRRTDKPRWRWTFDSGRRTPSVRIRQLVRGTVPWESLEAVARELGARYDQDTVRVVFLDADNWLSTPCVVNDRWFVKVISEQNALVHAVFTGARNLGMFSSGTEGFFERFDGPVAMAEHERDATRDLRALGVNAPRPIEAFEVDGFGVLVLDYLPAFTPLDEVPAADVAAHAPAVFEALSTMHANGVAHGDLRAENVLVSDGDLYFIDATNVDTDAIADARAYDLACALAALEPLIDAQTVVRIARESYTVDEAAADVSTTMDALLRAQDFLGFVQLRPDHDFDTAALTGHIGMAATNAQRGL", "soluble on expression in E. coli": "not soluble"}, {"sequence": "MGTQQKDVTIKSDAPDTLLLEKHADYIASYGSKKDDYEYCMSEYLRMSGVYWGLTVMDLMGQLHRMNKEEILVFIKSCQHECGGVSASIGHDPHLLYTLSAVQILTLYDSIHVINVDKVVAYVQSLQKEDGSFAGDIWGEIDTRFSFCAVATLALLGKLDAINVEKAIEFVLSCMNFDGGFGCRPGSESHAGQIYCCTGFLAITSQLHQVNSDLLGWWLCERQLPSGGLNGRPEKLPDVCYSWWVLASLKIIGRLHWIDREKLRSFILACQDEETGGFADRPGDMVDPFHTLFGIAGLSLLGEEQIKPVSPVFCMPEEVLQRVNVQPELVS", "soluble on expression in E. coli": "soluble"}, {"sequence": "MGSDKIHHHHHHMINQDIARIFTEIAYLLEAAGEQKSQFEANAYLKASRAISSMQEDLETIYEKGGKDALLSIPGIGKGIADKIVEYINSGSIQKYEDLKKKYPIDFISLMKIEGLGPKKLAVLYQALGITNVEELRNAILNHKVRGIPGFGEKSENQLLKNIEMAERVSERIPIWKAYPEALRIKNYLESTGYALIVEIAGSTRRMKETIGDIDILAASEYPNALMDKFVEMDGVSSIIAKGDKKSTVSLKIGTTCDLRIVSKESFGAAMQYFTGSKDHNIKLRRLAIGKGMKLNEYGLFSGDKNIVSGMPEEKVYETLDLAYIPPELREDRGEIEAAAQKRLPEIVQYGEVKGDMFSKMDVSNIKNITGISYVFVDSGDGPLTDLYMYTFDGGRAVKTGASIKALDCSKLNAVSELKSASGVIMLYNIDSLGLPESAAVQNLIEKLSKSGIIVLINSSDVRPTSDFLYSLRKYDFKVAIGSFSDEPSLEGSMRFGIGITRRAWIEKNRIINTLDANALMSYLKNSQ", "soluble on expression in E. coli": "not soluble"}, {"sequence": "MKSEIIAVGTEILTGQIVNTNSQFLSEKFAELGIDVYFQTAVGDNEERLLSVLKIAKERSDLIVLCGGLGPTEDDLTKQTLAKFLKRELVFDKTAQERLDEFFASRPTSMRTPNNECQAQIIAGSQPLSNKTGLAVGGLLEADGVTYVVLPGPPSELKPMVNKELLPYLSKTSEKLYSRVLRFFGIGESHLVTLLHDLIAEQTDPTIAPYAKTGEVTIRLSTKAHRQKEADSKLDKLEKKIITIDNLADYFYGYGEENSLPQVVFDLLKEKGKTITAAESLTAGLFQARLADFAGASDIFKGGFITYSIEEKARMLGIPFEDLQLHGVVSAFTAEKMAERSRQLTQADLAISLTGVAGPDSLEGQPAGTVFIGLSSSKRTMAIKVLIGGRSRSDVRYIAVLHAFNLVRQTLLSHKNLV", "soluble on expression in E. coli": "soluble"}]}]}
